According to paper doi:10.1101/2021.11.15.468682:

Target: T1, HsPlk4 PB3 (aa 884-970) (Homo sapiens), O00444
T1 chain: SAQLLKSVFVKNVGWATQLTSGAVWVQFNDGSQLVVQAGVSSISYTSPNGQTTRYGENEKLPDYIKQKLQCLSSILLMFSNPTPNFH
Assay: SEC-MALS
Conditions: remark: other sources report otherwise

B1: HsPlk4 PB3 (aa 884-970), O00444 884-970 (domain or fragment)
chain: T1 chain
For B1, the stoichiometry N was 2.
